Substrate: O=c1ccn([C@@H]2O[C@H](COP(=O)(O)O)[C@@H](O)[C@H]2O)c(=O)[nH]1
Assay: purified protein
Assay type: biochemical, Thermus thermophilus
Details: without GTP, 1 mM ATP, 5 mM MgCl2, 100 mM KCl, 50 mM Tris-HCl pH 7.5, 25°C

B1: ttUMPK (UMP kinase of Thermus thermophilus HB8) (Thermus thermophilus HB8) (protein)
chain: MKYKRVLLKLSGEFLTRNGFGIEPEATQALAREIKAAYDTGVQLAIVIGAGNLWRGARQGVGMDRATADYIGMLATIMNALALQDALESLGVPTRVQTALTITQVAEPYIRRRALRHLEKERIVIFGGGTGNPFFSTDTAAALRALEVGAEVVLMAKNKVDGVYSDDPRKNPEAVRFDELTYLEVLNRGLQVMDTTAITLCMEAGLPIVVFDIFKPGALVGIIQGEKVGTLIH
notes: full-length gene in pET-11a (NdeI/BamHI), no tag mentioned; expressed in E. coli BL21(DE3), heat-treated; homohexamer by size exclusion
  Km: 46 µM
  kcat: 13 s⁻¹

— paper PMC12404492, “The crystal structure of Thermus thermophilus UMP kinase complexed with a phosphoryl group acceptor and donor” (PLOS One, 2025)
